These results are taken from US10047138.

The target in assay [1] is ICOS-CD3 III fusion protein (human). In words: cell-based or functional assay.
Assay [2] deals with full length human wild type ICOS (human) (UniProt Q9Y6W8). In words: cell-based or functional assay.
UniProt Q9Y6W8, sequence (Q9Y6W8 21-199): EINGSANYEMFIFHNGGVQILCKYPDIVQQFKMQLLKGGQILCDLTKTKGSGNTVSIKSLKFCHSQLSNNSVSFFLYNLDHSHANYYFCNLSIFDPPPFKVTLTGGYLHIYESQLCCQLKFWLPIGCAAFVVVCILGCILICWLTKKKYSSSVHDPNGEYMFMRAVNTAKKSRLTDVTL

ICOS-CD3 III fusion protein (human), sequence (chain, as listed by the source limits assumed): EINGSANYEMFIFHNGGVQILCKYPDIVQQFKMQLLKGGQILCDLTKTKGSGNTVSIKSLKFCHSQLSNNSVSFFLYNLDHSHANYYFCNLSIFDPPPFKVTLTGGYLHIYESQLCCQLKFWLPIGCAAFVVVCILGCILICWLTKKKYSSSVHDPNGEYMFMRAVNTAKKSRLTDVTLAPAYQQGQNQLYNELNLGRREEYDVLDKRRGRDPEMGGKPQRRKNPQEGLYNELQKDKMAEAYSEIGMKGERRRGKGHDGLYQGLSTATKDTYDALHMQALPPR

Consider “B7RP1-Fc protein (from UniProt O75144 19-253) (Fc fusion)”, for which the figures for the IL-2 secretion (RLU), difference between clusters 1 (anti-CD3 alone) and 3 (anti-CD3 plus B7RP1-Fc) in assay [1] and in assay [2] were over 200 fold and under 8 fold, respectively. Moreover, the IL-2 secretion by Jurkat cells, 2.5 µg/mL anti-CD3 antibody plus 50 µg/mL B7RP1-Fc against anti-CD3 antibody alone was over 170 fold in assay [1] and under 17 fold in assay [2].
